{"source": "paper PMC9958556", "about": "“Genomic Distribution of Pro-Virulent cpdB-like Genes in Eubacteria and Comparison of the Enzyme Specificity of CpdB-like Proteins from Salmonella enterica, Escherichia coli and Streptococcus suis” (International Journal of Molecular Sciences, 2023)", "key": {"SntA": {"test_system": "T1, SntA", "T1 construct": "cell wall-attached protein of 813 residues; preparation from earlier work [10]", "assay": "HPLC at […] nm of […]'-AMP formed, initial rates, Michaelis-Menten fit", "format": "biochemical, Streptococcus suis", "conditions": "50 mM Tris-HCl pH 7.5, 2 mM MnCl2, 0.1 mg/mL BSA, 37 °C; read-out: K m ^1 /"}, "[1]": {"test_system": "Nc1ncnc2c1ncn2[C@@H]1O[C@@H]2COP(=O)(O)O[C@H]3[C@@H](O)[C@H](n4cnc5c(N)ncnc54)O[C@@H]3COP(=O)(O)O[C@H]3[C@@H](O)[C@H](n4cnc5c(N)ncnc54)O[C@@H]3COP(=O)(O)O[C@H]3[C@@H](O)[C@H](n4cnc5c(N)ncnc54)O[C@@H]3COP(=O)(O)O[C@H]2[C@H]1O", "assay": "purified protein", "conditions": "50 mM Tris-HCl pH 7.5, 2 mM MnCl2, 0.1 mg/mL BSA, 37 °C"}, "[2]": {"test_system": "Nc1ncnc2c1ncn2[C@@H]1O[C@H](COP(=O)(O)O[C@H]2[C@@H](O)[C@H](n3cnc4c(N)ncnc43)O[C@@H]2COP(=O)(O)O)[C@@H](O)[C@H]1O", "assay": "purified protein", "conditions": "50 mM Tris-HCl pH 7.5, 2 mM MnCl2, 0.1 mg/mL BSA, 37 °C"}, "[3]": {"test_system": "O=[N+]([O-])c1ccc(OP(=O)(O)Oc2ccc([N+](=O)[O-])cc2)cc1", "assay": "purified protein", "conditions": "50 mM Tris-HCl pH 7.5, 2 mM MnCl2, 0.1 mg/mL BSA, 37 °C, excess alkaline phosphatase", "text": "(§1) coupled alkaline phosphatase, colorimetric phosphate release, initial rates, Michaelis-Menten fit on S. enterica CpdB"}, "[4]": {"test_system": "Nc1nc2c(ncn2[C@@H]2O[C@H](CO)[C@@H](OP(=O)(O)O)[C@H]2O)c(=O)[nH]1", "assay": "purified protein", "conditions": "50 mM Tris-HCl pH 7.5, 2 mM MnCl2, 0.1 mg/mL BSA, 37 °C", "text": "(§2) colorimetric phosphate release, initial rates, Michaelis-Menten fit on S. enterica CpdB"}, "[5]": {"test_system": "Nc1ccn([C@@H]2O[C@H](CO)[C@H]3OP(=O)(O)O[C@H]32)c(=O)n1", "assay": "purified protein", "conditions": "50 mM Tris-HCl pH 7.5, 2 mM MnCl2, 0.1 mg/mL BSA, 37 °C, excess alkaline phosphatase", "text": "as §1"}, "[6]": {"test_system": "Nc1ncnc2c1ncn2[C@@H]1O[C@H](COP(=O)(O)OP(=O)(O)OP(=O)(O)OP(=O)(O)OC[C@H]2O[C@@H](n3cnc4c(N)ncnc43)[C@H](O)[C@@H]2O)[C@@H](O)[C@H]1O", "assay": "purified protein", "conditions": "50 mM Tris-HCl pH 7.5, 2 mM MnCl2, 0.1 mg/mL BSA, 37 °C, excess alkaline phosphatase", "text": "as §1"}, "[7]": {"test_system": "Nc1ncnc2c1ncn2[C@@H]1O[C@H](CO)[C@@H](OP(=O)(O)O)[C@H]1O", "assay": "purified protein", "conditions": "50 mM Tris-HCl pH 7.5, 2 mM MnCl2, 0.1 mg/mL BSA, 37 °C", "text": "as §2"}, "[8]": {"test_system": "[H][C@@]1(O)[C@]2([H])OP(=O)(O)OC[C@@]3([H])O[C@@]([H])(n4cnc5c(N)ncnc54)[C@]([H])(O)[C@]3([H])OP(=O)(O)OC[C@@]2([H])O[C@@]1([H])n1cnc2c(N)ncnc21", "assay": "purified protein", "conditions": "50 mM Tris-HCl pH 7.5, 2 mM MnCl2, 0.1 mg/mL BSA, 37 °C"}, "[9]": {"test_system": "Nc1nc2c(ncn2[C@@H]2O[C@@H]3CO[P@](=O)(O)O[C@H]4[C@@H](O)[C@H](n5cnc6c(=O)[nH]c(N)nc65)O[C@@H]4CO[P@](=O)(O)O[C@H]3[C@H]2O)c(=O)[nH]1", "assay": "purified protein", "conditions": "50 mM Tris-HCl pH 7.5, 2 mM MnCl2, 0.1 mg/mL BSA, 37 °C"}, "[10]": {"test_system": "Nc1nc2c(ncn2[C@@H]2O[C@H](CO)[C@H]3OP(=O)(O)O[C@H]32)c(=O)[nH]1", "assay": "purified protein", "conditions": "50 mM Tris-HCl pH 7.5, 2 mM MnCl2, 0.1 mg/mL BSA, 37 °C, excess alkaline phosphatase", "text": "as §1"}, "[11]": {"test_system": "O=c1ccn([C@@H]2O[C@H](CO)[C@@H](OP(=O)(O)O)[C@H]2O)c(=O)[nH]1", "assay": "purified protein", "conditions": "50 mM Tris-HCl pH 7.5, 2 mM MnCl2, 0.1 mg/mL BSA, 37 °C", "text": "as §2"}, "[12]": {"test_system": "Nc1ncnc2c1ncn2[C@@H]1O[C@H](CO)[C@H]2OP(=O)(O)O[C@H]21", "assay": "purified protein", "conditions": "50 mM Tris-HCl pH 7.5, 2 mM MnCl2, 0.1 mg/mL BSA, 37 °C, excess alkaline phosphatase", "text": "as §1"}, "[13]": {"test_system": "Nc1nc2c(ncn2[C@@H]2O[C@@H]3COP(=O)(O)O[C@H]4[C@@H](O)[C@H](n5cnc6c(N)ncnc65)O[C@@H]4COP(=O)(O)O[C@H]3[C@H]2O)c(=O)[nH]1", "assay": "purified protein", "conditions": "50 mM Tris-HCl pH 7.5, 2 mM MnCl2, 0.1 mg/mL BSA, 37 °C"}, "[14]": {"test_system": "Nc1ncnc2c1ncn2[C@@H]1O[C@H](COP(=O)(O)OP(=O)(O)O)[C@@H](O)[C@H]1O", "assay": "purified protein", "conditions": "50 mM Tris-HCl pH 7.5, 2 mM MnCl2, 0.1 mg/mL BSA, 37 °C", "text": "as §2"}, "[15]": {"test_system": "Nc1ncnc2c1ncn2[C@@H]1O[C@@H]2COP(=O)(O)O[C@H]3[C@@H](O)[C@H](n4cnc5c(N)ncnc54)O[C@@H]3COP(=O)(O)O[C@H]3[C@@H](O)[C@H](n4cnc5c(N)ncnc54)O[C@@H]3COP(=O)(O)O[C@H]3[C@@H](O)[C@H](n4cnc5c(N)ncnc54)O[C@@H]3COP(=O)(O)O[C@H]3[C@@H](O)[C@H](n4cnc5c(N)ncnc54)O[C@@H]3COP(=O)(O)O[C@H]3[C@@H](O)[C@H](n4cnc5c(N)ncnc54)O[C@@H]3COP(=O)(O)O[C@H]2[C@H]1O", "assay": "purified protein", "conditions": "50 mM Tris-HCl pH 7.5, 2 mM MnCl2, 0.1 mg/mL BSA, 37 °C"}, "[16]": {"test_system": "Nc1ncnc2c1ncn2[C@@H]1O[C@H](COP(=O)(O)OP(=O)(O)OP(=O)(O)OC[C@H]2O[C@@H](n3cnc4c(N)ncnc43)[C@H](O)[C@@H]2O)[C@@H](O)[C@H]1O", "assay": "purified protein", "conditions": "50 mM Tris-HCl pH 7.5, 2 mM MnCl2, 0.1 mg/mL BSA, 37 °C, excess alkaline phosphatase", "text": "as §1"}, "[17]": {"test_system": "O=c1ccn([C@@H]2O[C@H](CO)[C@H]3OP(=O)(O)O[C@H]32)c(=O)[nH]1", "assay": "purified protein", "conditions": "50 mM Tris-HCl pH 7.5, 2 mM MnCl2, 0.1 mg/mL BSA, 37 °C, excess alkaline phosphatase", "text": "as §1"}}}
{"compound": "Nc1ncnc2c1ncn2[C@@H]1O[C@@H]2COP(=O)(O)O[C@H]3[C@@H](O)[C@H](n4cnc5c(N)ncnc54)O[C@@H]3COP(=O)(O)O[C@H]3[C@@H](O)[C@H](n4cnc5c(N)ncnc54)O[C@@H]3COP(=O)(O)O[C@H]3[C@@H](O)[C@H](n4cnc5c(N)ncnc54)O[C@@H]3COP(=O)(O)O[C@H]3[C@@H](O)[C@H](n4cnc5c(N)ncnc54)O[C@@H]3COP(=O)(O)O[C@H]3[C@@H](O)[C@H](n4cnc5c(N)ncnc54)O[C@@H]3COP(=O)(O)O[C@H]2[C@H]1O", "note": "[c-hexa-AMP]", "values": [{"measurement": "Km", "setting": "SntA", "value": "2.63 ± 0.88", "unit": "µM"}]}
{"compound": "S. enterica CpdB (Salmonella enterica subsp. enterica serovar Typhimurium str. LT2)", "values": [{"measurement": "Km", "setting": "[1]", "value": "18.44 ± 4.95", "unit": "µM"}, {"measurement": "kcat", "setting": "[1]", "value": "0.042 ± 0.001", "unit": "s⁻¹"}, {"measurement": "kcat/Km", "setting": "[1]", "value": 2370, "unit": "M⁻¹ s⁻¹"}, {"measurement": "Km", "setting": "[2]", "value": "0.22 ± 0.12", "unit": "µM"}, {"measurement": "kcat", "setting": "[2]", "value": "2.85 ± 1.04", "unit": "s⁻¹"}, {"measurement": "kcat/Km", "setting": "[2]", "value": "1.39e+07", "unit": "M⁻¹ s⁻¹"}, {"measurement": "Km", "setting": "[3]", "value": "33.74 ± 4.77", "unit": "µM"}, {"measurement": "kcat", "setting": "[3]", "value": "250 ± 9.82", "unit": "s⁻¹"}, {"measurement": "kcat/Km", "setting": "[3]", "value": "7.53e+06", "unit": "M⁻¹ s⁻¹"}, {"measurement": "Km", "setting": "[4]", "value": "4.66 ± 1.34", "unit": "µM"}, {"measurement": "kcat", "setting": "[4]", "value": "219 ± 48.7", "unit": "s⁻¹"}, {"measurement": "kcat/Km", "setting": "[4]", "value": "5.23e+07", "unit": "M⁻¹ s⁻¹"}, {"measurement": "Km", "setting": "[5]", "value": "4.52 ± 0.69", "unit": "µM"}, {"measurement": "kcat", "setting": "[5]", "value": "146 ± 9.39", "unit": "s⁻¹"}, {"measurement": "kcat/Km", "setting": "[5]", "value": "3.32e+07", "unit": "M⁻¹ s⁻¹"}, {"measurement": "Km", "setting": "[6]", "value": "49.21 ± 12.46", "unit": "µM"}, {"measurement": "kcat", "setting": "[6]", "value": "2.64 ± 0.24", "unit": "s⁻¹"}, {"measurement": "kcat/Km", "setting": "[6]", "value": 55000, "unit": "M⁻¹ s⁻¹"}, {"measurement": "Km", "setting": "[7]", "value": "6.53 ± 1.16", "unit": "µM"}, {"measurement": "kcat", "setting": "[7]", "value": "172 ± 41.3", "unit": "s⁻¹"}, {"measurement": "kcat/Km", "setting": "[7]", "value": "2.76e+07", "unit": "M⁻¹ s⁻¹"}, {"measurement": "Km", "setting": "[8]", "value": "8.89 ± 2.31", "unit": "µM"}, {"measurement": "kcat", "setting": "[8]", "value": "0.31 ± 0.06", "unit": "s⁻¹"}, {"measurement": "kcat/Km", "setting": "[8]", "value": 35500, "unit": "M⁻¹ s⁻¹"}, {"measurement": "Km", "setting": "[9]", "value": "4.12 ± 0.98", "unit": "µM"}, {"measurement": "kcat", "setting": "[9]", "value": "0.09 ± 0.01", "unit": "s⁻¹"}, {"measurement": "kcat/Km", "setting": "[9]", "value": 22400, "unit": "M⁻¹ s⁻¹"}, {"measurement": "Km", "setting": "[10]", "value": "7.52 ± 1.46", "unit": "µM"}, {"measurement": "kcat", "setting": "[10]", "value": "120 ± 4.74", "unit": "s⁻¹"}, {"measurement": "kcat/Km", "setting": "[10]", "value": "1.63e+07", "unit": "M⁻¹ s⁻¹"}, {"measurement": "Km", "setting": "[11]", "value": "4.54 ± 0.53", "unit": "µM"}, {"measurement": "kcat", "setting": "[11]", "value": "155 ± 13.3", "unit": "s⁻¹"}, {"measurement": "kcat/Km", "setting": "[11]", "value": "3.42e+07", "unit": "M⁻¹ s⁻¹"}, {"measurement": "Km", "setting": "[12]", "value": "14.41 ± 3.68", "unit": "µM"}, {"measurement": "kcat", "setting": "[12]", "value": "209 ± 16.9", "unit": "s⁻¹"}, {"measurement": "kcat/Km", "setting": "[12]", "value": "1.53e+07", "unit": "M⁻¹ s⁻¹"}, {"measurement": "Km", "setting": "[13]", "value": "2.13 ± 0.32", "unit": "µM"}, {"measurement": "kcat", "setting": "[13]", "value": "0.3 ± 0.03", "unit": "s⁻¹"}, {"measurement": "kcat/Km", "setting": "[13]", "value": 197000, "unit": "M⁻¹ s⁻¹"}, {"measurement": "Km", "setting": "[14]", "value": "28.09 ± 1.82", "unit": "µM"}, {"measurement": "kcat", "setting": "[14]", "value": "2.83 ± 0.19", "unit": "s⁻¹"}, {"measurement": "kcat/Km", "setting": "[14]", "value": 101000, "unit": "M⁻¹ s⁻¹"}, {"measurement": "Km", "setting": "[15]", "value": "24.24 ± 7.60", "unit": "µM"}, {"measurement": "kcat", "setting": "[15]", "value": "0.006 ± 0.001", "unit": "s⁻¹"}, {"measurement": "kcat/Km", "setting": "[15]", "value": 238, "unit": "M⁻¹ s⁻¹"}, {"measurement": "Km", "setting": "[16]", "value": "69.09 ± 19.31", "unit": "µM"}, {"measurement": "kcat", "setting": "[16]", "value": "2.1 ± 0.17", "unit": "s⁻¹"}, {"measurement": "kcat/Km", "setting": "[16]", "value": 31600, "unit": "M⁻¹ s⁻¹"}, {"measurement": "Km", "setting": "[17]", "value": "22.65 ± 2.56", "unit": "µM"}, {"measurement": "kcat", "setting": "[17]", "value": "324 ± 21.8", "unit": "s⁻¹"}, {"measurement": "kcat/Km", "setting": "[17]", "value": "1.44e+07", "unit": "M⁻¹ s⁻¹"}]}
{"compound": "Nc1ncnc2c1ncn2[C@@H]1O[C@@H]2COP(=O)(O)O[C@H]3[C@@H](O)[C@H](n4cnc5c(N)ncnc54)O[C@@H]3COP(=O)(O)O[C@H]3[C@@H](O)[C@H](n4cnc5c(N)ncnc54)O[C@@H]3COP(=O)(O)O[C@H]3[C@@H](O)[C@H](n4cnc5c(N)ncnc54)O[C@@H]3COP(=O)(O)O[C@H]2[C@H]1O", "note": "[c-tetra-AMP]", "values": [{"measurement": "Km", "setting": "SntA", "value": "262 ± 62.1", "unit": "µM"}]}
